This note sets out measurements from the supplement of paper PMC9112550, “Optimization of the antimicrobial peptide Bac7 by deep mutational scanning” (BMC Biology, 2022).
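Further: peptides expressed intracellularly from a pBAD plasmid library in pooled LB shake-flask culture, induced with 0.3% L-arabinose, DNA abundance read by NGS, three biological replicates, DESeq2 with apeglm shrinkage.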

The test system of this data set is Escherichia coli TOP10. Put plainly: shrunken log2 fold change of peptide-encoding DNA abundance (4.5 h post-induction vs induction); higher = less antimicrobial activity (less host growth inhibition). Conditions: time post-induction: 4.5 h; library: site-saturation at positions 5, 18, 19, 20.
As to RRIRIRPPRLPRPRPRPYHVPRP, the “shrunken log2 fold change” value was -0.186.

RRIRFRPPRLPRPRPRPALKPRP: the “shrunken log2 fold change” value was -0.0754.

For RRIRERPPRLPRPRPRPWLSPRP, the “shrunken log2 fold change” value was 0.0694.

RRIRHRPPRLPRPRPRPYSEPRP: the “shrunken log2 fold change” value was -0.29.

As for RRIRQRPPRLPRPRPRPFRAPRP, the “shrunken log2 fold change” value was determined as 0.0134.

Take RRIRQRPPRLPRPRPRPIIEPRP: the “shrunken log2 fold change” value was -0.504.

On to RRIRVRPPRLPRPRPRPWQHPRP, for which the “shrunken log2 fold change” value worked out at 0.0882.

For RRIRKRPPRLPRPRPRPAMCPRP, the “shrunken log2 fold change” value came out at 0.059.

Consider RRIRERPPRLPRPRPRPMGPPRP, for which the “shrunken log2 fold change” value is -0.0976.

For RRIRSRPPRLPRPRPRPWSCPRP, the “shrunken log2 fold change” value amounted to 0.194.

With RRIRVRPPRLPRPRPRPNWCPRP, the “shrunken log2 fold change” value is -0.00931.

For RRIRKRPPRLPRPRPRPQTLPRP, the “shrunken log2 fold change” value came out at 0.0931.

Regarding RRIRMRPPRLPRPRPRPHFFPRP, the “shrunken log2 fold change” value is -0.134.

Turning to RRIRPRPPRLPRPRPRPMETPRP, the “shrunken log2 fold change” value was -0.00904.

On to RRIRPRPPRLPRPRPRPAIAPRP, for which the “shrunken log2 fold change” value came out at 0.194.

In the case of RRIRIRPPRLPRPRPRPIGSPRP, the “shrunken log2 fold change” value was -0.0175.

Consider RRIRIRPPRLPRPRPRPWDDPRP, for which the “shrunken log2 fold change” value is -0.391.

As for RRIRYRPPRLPRPRPRPPTQPRP, the “shrunken log2 fold change” value was -0.056.

For the sequence RRIRPRPPRLPRPRPRPDGAPRP, the “shrunken log2 fold change” value is 0.159.

As for RRIRTRPPRLPRPRPRPFQIPRP, the “shrunken log2 fold change” value was -0.103.

As to RRIRNRPPRLPRPRPRPKFGPRP, the “shrunken log2 fold change” value came out at 0.0252.

With RRIRLRPPRLPRPRPRPVVPPRP, the “shrunken log2 fold change” value was determined as 0.139.

Turning to RRIRIRPPRLPRPRPRPVYMPRP, the “shrunken log2 fold change” value was -0.678.

For the sequence RRIRCRPPRLPRPRPRPYYAPRP, the “shrunken log2 fold change” value was -1.1.

Consider RRIRIRPPRLPRPRPRPFHQPRP, for which the “shrunken log2 fold change” value is -0.961.

RRIRYRPPRLPRPRPRPLQPPRP: the “shrunken log2 fold change” value was -0.499.

As for RRIRPRPPRLPRPRPRPELPPRP, the “shrunken log2 fold change” value worked out at 0.175.

As for RRIRVRPPRLPRPRPRPYGMPRP, the “shrunken log2 fold change” value is -0.0584.

Consider RRIRHRPPRLPRPRPRPHGPPRP, for which the “shrunken log2 fold change” value is 0.0873.

Regarding RRIRIRPPRLPRPRPRPLANPRP, the “shrunken log2 fold change” value is -0.145.

For the sequence RRIRFRPPRLPRPRPRPYASPRP, the “shrunken log2 fold change” value was -0.0651.

Take RRIRHRPPRLPRPRPRPRTTPRP: the “shrunken log2 fold change” value amounted to 0.136.

As for RRIRFRPPRLPRPRPRPSPRPRP, the “shrunken log2 fold change” value came to 0.426.

As for RRIRWRPPRLPRPRPRPCWIPRP, the “shrunken log2 fold change” value was -0.072.

Take RRIRMRPPRLPRPRPRPDTEPRP: the “shrunken log2 fold change” value was 0.33.

In the case of RRIRMRPPRLPRPRPRPSTKPRP, the “shrunken log2 fold change” value came to 0.291.

Take RRIRSRPPRLPRPRPRPPILPRP: the “shrunken log2 fold change” value was 0.0371.

Take RRIRHRPPRLPRPRPRPCHRPRP: the “shrunken log2 fold change” value is -0.126.

With RRIRKRPPRLPRPRPRPEKHPRP, the “shrunken log2 fold change” value came out at 0.401.

With RRIRDRPPRLPRPRPRPLNPPRP, the “shrunken log2 fold change” value was -0.478.

In the case of RRIRARPPRLPRPRPRPSGLPRP, the “shrunken log2 fold change” value is 0.0354.

As for RRIRPRPPRLPRPRPRPGRRPRP, the “shrunken log2 fold change” value was 0.123.

With RRIRCRPPRLPRPRPRPKLYPRP, the “shrunken log2 fold change” value is -0.38.

For the sequence RRIRTRPPRLPRPRPRPPRWPRP, the “shrunken log2 fold change” value is 0.689.

With RRIRIRPPRLPRPRPRPNVTPRP, the “shrunken log2 fold change” value was -0.149.

Regarding RRIRWRPPRLPRPRPRPDWVPRP, the “shrunken log2 fold change” value was 0.253.

RRIRTRPPRLPRPRPRPVKDPRP: the “shrunken log2 fold change” value was -0.0913.

Turning to RRIRTRPPRLPRPRPRPIVSPRP, the “shrunken log2 fold change” value was -0.0631.

As to RRIRDRPPRLPRPRPRPDYNPRP, the “shrunken log2 fold change” value was -0.204.

Consider RRIRIRPPRLPRPRPRPCIAPRP, for which the “shrunken log2 fold change” value is -0.0579.

On to RRIRTRPPRLPRPRPRPEATPRP, for which the “shrunken log2 fold change” value amounted to 1.05.

For the sequence RRIRARPPRLPRPRPRPAKEPRP, the “shrunken log2 fold change” value is 0.521.

In the case of RRIRQRPPRLPRPRPRPGNLPRP, the “shrunken log2 fold change” value came to 0.0588.

As for RRIRTRPPRLPRPRPRPHHYPRP, the “shrunken log2 fold change” value was -0.46.

Take RRIRDRPPRLPRPRPRPWLEPRP: the “shrunken log2 fold change” value came out at 0.098.

Take RRIRKRPPRLPRPRPRPAYMPRP: the “shrunken log2 fold change” value was 0.0668.

In the case of RRIRCRPPRLPRPRPRPVDYPRP, the “shrunken log2 fold change” value is -0.258.

As for RRIRCRPPRLPRPRPRPYETPRP, the “shrunken log2 fold change” value was 0.023.

As to RRIRNRPPRLPRPRPRPQGNPRP, the “shrunken log2 fold change” value is -0.0905.

For RRIRNRPPRLPRPRPRPNYEPRP, the “shrunken log2 fold change” value was -0.21.

Regarding RRIRFRPPRLPRPRPRPKDHPRP, the “shrunken log2 fold change” value was -0.179.

For the sequence RRIRRRPPRLPRPRPRPQYVPRP, the “shrunken log2 fold change” value is -0.265.

With RRIRGRPPRLPRPRPRPKVGPRP, the “shrunken log2 fold change” value stood at 0.721.

As for RRIRWRPPRLPRPRPRPPLDPRP, the “shrunken log2 fold change” value came out at 0.57.

On to RRIRLRPPRLPRPRPRPIKEPRP, for which the “shrunken log2 fold change” value is -0.0262.

Regarding RRIRERPPRLPRPRPRPTYPPRP, the “shrunken log2 fold change” value is -1.11.

As for RRIRKRPPRLPRPRPRPYQPPRP, the “shrunken log2 fold change” value is -0.191.

For RRIRNRPPRLPRPRPRPMCLPRP, the “shrunken log2 fold change” value is -0.0215.

Consider RRIRFRPPRLPRPRPRPWCPPRP, for which the “shrunken log2 fold change” value is -0.155.

For the sequence RRIRHRPPRLPRPRPRPPGAPRP, the “shrunken log2 fold change” value is 0.935.

With RRIRGRPPRLPRPRPRPKHQPRP, the “shrunken log2 fold change” value was determined as 0.441.

Regarding RRIRSRPPRLPRPRPRPHCQPRP, the “shrunken log2 fold change” value is -0.159.

Regarding RRIRQRPPRLPRPRPRPSWAPRP, the “shrunken log2 fold change” value is -0.0374.

As to RRIRVRPPRLPRPRPRPVGWPRP, the “shrunken log2 fold change” value is 0.77.

Regarding RRIRGRPPRLPRPRPRPNWVPRP, the “shrunken log2 fold change” value was 0.325.

As to RRIRDRPPRLPRPRPRPCVTPRP, the “shrunken log2 fold change” value came to 0.163.

RRIRFRPPRLPRPRPRPRRHPRP: the “shrunken log2 fold change” value turned out to be 0.822.

With RRIRIRPPRLPRPRPRPIRVPRP, the “shrunken log2 fold change” value was -0.0611.

In the case of RRIRHRPPRLPRPRPRPILCPRP, the “shrunken log2 fold change” value is -0.182.

In the case of RRIRARPPRLPRPRPRPSGPPRP, the “shrunken log2 fold change” value was 0.0223.

RRIRERPPRLPRPRPRPHIQPRP: the “shrunken log2 fold change” value is -0.705.

With RRIRTRPPRLPRPRPRPYFCPRP, the “shrunken log2 fold change” value was -0.0855.

With RRIRARPPRLPRPRPRPTCYPRP, the “shrunken log2 fold change” value worked out at 0.128.

Consider RRIRRRPPRLPRPRPRPVMKPRP, for which the “shrunken log2 fold change” value was -0.025.

Take RRIRGRPPRLPRPRPRPVPTPRP: the “shrunken log2 fold change” value worked out at 0.865.

On to RRIRDRPPRLPRPRPRPHTMPRP, for which the “shrunken log2 fold change” value was -0.863.

Turning to RRIRGRPPRLPRPRPRPLGDPRP, the “shrunken log2 fold change” value came to 0.624.

Turning to RRIRERPPRLPRPRPRPKADPRP, the “shrunken log2 fold change” value is -0.0439.

With RRIRVRPPRLPRPRPRPWVCPRP, the “shrunken log2 fold change” value was found to be 0.133.

On to RRIRNRPPRLPRPRPRPHDAPRP, for which the “shrunken log2 fold change” value is -0.116.

RRIRQRPPRLPRPRPRPIWQPRP: the “shrunken log2 fold change” value was -0.049.

On to RRIRDRPPRLPRPRPRPWSDPRP, for which the “shrunken log2 fold change” value is -0.0204.

In the case of RRIRWRPPRLPRPRPRPSLCPRP, the “shrunken log2 fold change” value was 0.384.

With RRIRYRPPRLPRPRPRPHTPPRP, the “shrunken log2 fold change” value is -0.346.

As to RRIRFRPPRLPRPRPRPHGFPRP, the “shrunken log2 fold change” value was -0.105.

Consider RRIRERPPRLPRPRPRPFAEPRP, for which the “shrunken log2 fold change” value was -0.326.

On to RRIRHRPPRLPRPRPRPCSRPRP, for which the “shrunken log2 fold change” value was -0.231.

RRIRVRPPRLPRPRPRPSWWPRP: the “shrunken log2 fold change” value stood at 0.0465.

RRIRVRPPRLPRPRPRPFPCPRP: the “shrunken log2 fold change” value is -0.00113.

Turning to RRIRPRPPRLPRPRPRPSDSPRP, the “shrunken log2 fold change” value was -0.361.

For RRIRFRPPRLPRPRPRPLEVPRP, the “shrunken log2 fold change” value was determined as 0.0238.

Turning to RRIRERPPRLPRPRPRPCQRPRP, the “shrunken log2 fold change” value turned out to be 0.0562.

For the sequence RRIRIRPPRLPRPRPRPAVEPRP, the “shrunken log2 fold change” value turned out to be 0.193.

In the case of RRIRVRPPRLPRPRPRPKPTPRP, the “shrunken log2 fold change” value worked out at 0.707.

As for RRIRTRPPRLPRPRPRPHVKPRP, the “shrunken log2 fold change” value is -0.126.

RRIRWRPPRLPRPRPRPKPGPRP: the “shrunken log2 fold change” value was 0.34.

For RRIRQRPPRLPRPRPRPPKKPRP, the “shrunken log2 fold change” value was -0.0474.

Turning to RRIRYRPPRLPRPRPRPHVTPRP, the “shrunken log2 fold change” value is -0.147.

With RRIRHRPPRLPRPRPRPVHNPRP, the “shrunken log2 fold change” value was 0.154.

In the case of RRIRWRPPRLPRPRPRPMTIPRP, the “shrunken log2 fold change” value was 0.025.

Take RRIRLRPPRLPRPRPRPGAIPRP: the “shrunken log2 fold change” value worked out at 0.0769.

Regarding RRIRWRPPRLPRPRPRPCFDPRP, the “shrunken log2 fold change” value was 0.172.

RRIRERPPRLPRPRPRPKLNPRP: the “shrunken log2 fold change” value was -0.254.

In the case of RRIRQRPPRLPRPRPRPYTMPRP, the “shrunken log2 fold change” value is -0.128.

With RRIRHRPPRLPRPRPRPHPMPRP, the “shrunken log2 fold change” value is -0.076.

Turning to RRIRERPPRLPRPRPRPCIYPRP, the “shrunken log2 fold change” value was -0.328.

As to RRIRDRPPRLPRPRPRPEDFPRP, the “shrunken log2 fold change” value worked out at 0.427.

For RRIRIRPPRLPRPRPRPNLSPRP, the “shrunken log2 fold change” value is -0.0917.

For the sequence RRIRNRPPRLPRPRPRPVAMPRP, the “shrunken log2 fold change” value was -0.198.

RRIRTRPPRLPRPRPRPPTHPRP: the “shrunken log2 fold change” value worked out at 0.176.

Take RRIRNRPPRLPRPRPRPPVFPRP: the “shrunken log2 fold change” value stood at 0.15.

For RRIRYRPPRLPRPRPRPANKPRP, the “shrunken log2 fold change” value was -0.278.

On to RRIRQRPPRLPRPRPRPSVKPRP, for which the “shrunken log2 fold change” value was -0.0362.

On to RRIRQRPPRLPRPRPRPPAYPRP, for which the “shrunken log2 fold change” value stood at 0.106.

As for RRIRMRPPRLPRPRPRPFTNPRP, the “shrunken log2 fold change” value came out at 3.34.
